This experiment deals with T1, human CD147 (human, UniProt P35613).
T1 chain: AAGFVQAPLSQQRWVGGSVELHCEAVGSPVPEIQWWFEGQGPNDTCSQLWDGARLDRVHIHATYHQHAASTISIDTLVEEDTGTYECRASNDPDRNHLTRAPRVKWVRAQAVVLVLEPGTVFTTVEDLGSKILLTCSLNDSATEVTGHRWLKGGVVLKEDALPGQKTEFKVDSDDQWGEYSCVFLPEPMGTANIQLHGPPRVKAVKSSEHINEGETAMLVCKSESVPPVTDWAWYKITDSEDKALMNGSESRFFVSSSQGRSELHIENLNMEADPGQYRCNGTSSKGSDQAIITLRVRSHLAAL
Put plainly: ELISA. (In general: In an ELISA, binding on a coated surface is turned into a signal by an enzyme label.)

B1: mouse 3A11 (antibody, V domains shown)
VH: EVQLVESGGGLVQPGGSLRLSCAASGFTFSNYWMDWVRQAPGKGLEWVGEIRLKSYNYATHYAASVKGRFTISRDDSKNSVYLQMNSLKTEDTAVYYCTAAGTDYWGQGTLVTVSS
VL: SIVMTQIPKILLVSAGDRVTITCKASQSVRTDVAWYQQKPGQSPKLLIYYSSNRYTGVPDRFTGSGYGTDFTFTISTVQAEDLAVYFCQQDYSSPFTFGSGTKLEIK
For the molecule B1, the Kd (as a rule, the equilibrium constant for the complex coming apart) was found to be 293 pM.

(Values after US20180303952 (published 2018).)
